The RNAGym collection of RNA variant scans (doi:10.1073/pnas.2313332121)

B1: TPR t1 (parent)
chain: GACCAAUCUGCCCUCAGAGCUCGAGAACAUCUUCGGAUGCAGAGGAGGCAGGCUUCGGUGGCGCGAUAGCGCCAACGUCCUCAACCUCCAAUGCAUCCCACCACAUGAUGAUGCCUGAAGAGCCUUGGUUUUUUG

Variants of: B1
Assay: polymerase ribozyme fitness, log enrichment relative to wild type (log ratio); higher = more active; in vitro selection for triplet polymerase activity
Outline: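 Genotype fitness is the logarithm of its enrichment divided by wild-type enrichment, using inverse-variance-weighted averages of replicates. That logarithm is base 2. Enrichment was measured by Illumina sequencing of input and output libraries from one triplicate in vitro selection round, with frozen incubation at −7 °C, on PCR-built, transcribed mutant libraries of each subunit of a heterodimeric triplet polymerase ribozyme, retaining genotypes with ≥10 input reads and ≥1 read per output.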

Row | Variant | polymerase ribozyme fitness (log ratio)
1 | GACCAAUCUGCCCUCAGAGCUCGAGAACAUCUUCGGAUGCAGAGGAGGCAGGCUUCGGUGGCGCGAUAGCGCCAACGUCCUCAACCUCCAAUGCAUCCCACCAUAUGAUGACGCCUGAAGAGCCUUGGUUUUUUG [C104U U112C] | 0.772
2 | GACCAAUCUGCCCUCAGAGCUCGAGAACAUCUUCGGAUGCAGAGGAGGCAGGCUUCGGUGGCGCGAUAGCGCCAACGUCCUCAACCUCCAAUGCAUCCCACCAUAUGAUGUUGCCUGAGGAGCCUUGGUUUUUUG [C104U A111U A119G] | -1.53
3 | GACCAAUCUGCCCUCAGAGCUCGAGAACAUCUUCGGAUGCAGAGGAGGCAGGCUUCGGUGGCGCGAUAGCGCCAACGUCCUCAACCUCCAAUGCAUCCCACCACGUGAUGAUGCCUGAAGAGCUUUGGUUUUUUG [A105G C124U] | -0.654
4 | GACCAAUCUGCCCUCAGAGCUCGAGAACAUCUUCGGAUGCAGAGGAGGCAGGCUUCGGUGGCGCGAUAGCGCCAACGUCCUCAACCUCCAAUGCAUCCCACCACUUGACGAUGCCUGAAGAGCCUUGGUUUUUUG [A105U U109C] | -5.35
5 | GACCAAUCUGCCCUCAGAGCUCGAGAACAUCUUCGGAUGCAGAGGAGGCAGGCUUCGGUGGCGCGAUAGCGCCAACGUCCUCAACCUCCAAUGCAUCCCACCACACGAUGAUCCCUGAAGAGCCUUGGUUUUUUG [U106C G113C] | -2.72
6 | GACCAAUCUGCCCUCAGAGCUCGAGAACAUCUUCGGAUGCAGAGGAGGCAGGCUUCGGUGGCGCGAUAGCGCCAACGUCCUCAACCUCCAAUGCAUCCCACCAAAUGAUGAGGCCUGAAGAGCCUUGGUUUUUUG [C104A U112G] | -1.47
7 | GACCAAUCUGCCCUCAGAGCUCGAGAACAUCUUCGGAUGCAGAGGAGGCAGGCUUCGGUGGCGCGAUAGCGCCAACGUCCUCAACCUCCAAUGCAUCCCACCACACGAUGAUGCCGGAAGAGCCUUGGUUUUUUG [U106C U116G] | -2.03
8 | GACCAAUCUGCCCUCAGAGCUCGAGAACAUCUUCGGAUGCAGAGGAGGCAGGCUUCGGUGGCGCGAUAGCGCCAACGUCCUCAACCUCCAAUGCAUCCCACCACAAGAUGAUGGCUGAAGAGCCUUGGUUUUUUG [U106A C114G] | -3.33
9 | GACCAAUCUGCCCUCAGAGCUCGAGAACAUCUUCGGAUGCAGAGGAGGCAGGCUUCGGUGGCGCGAUAGCGCCAACGUCCUCAACCUCCAAUGCAUCCCACCACCUGAUGAUGCCUGAAGAGCCUUGGAUUUUUG [A105C U129A] | -4.21
10 | GACCAAUCUGCCCUCAGAGCUCGAGAACAUCUUCGGAUGCAGAGGAGGCAGGCUUCGGUGGCGCGAUAGCGCCAACGUCCUCAACCUCCAAUGCAUCCCACCACCUGAUGAUUCCUGAAGAGCCUUGGUUUUUUG [A105C G113U] | -4.85
11 | GACCAAUCUGCCCUCAGAGCUCGAGAACAUCUUCGGAUGCAGAGGAGGCAGGCUUCGGUGGCGCGAUAGCGCCAACGUCCUCAACCUCCAAUGCAUCCCACCAGAUGAUGAAGCCUGAAGAGCCUUGGUUUUUUG [C104G U112A] | -4.8
12 | GACCAAUCUGCCCUCAGAGCUCGAGAACAUCUUCGGAUGCAGAGGAGGCAGGCUUCGGUGGCGCGAUAGCGCCAACGUCCUCAACCUCCAAUGCAUCCCACCAAAUGAUGAUGCCUGAAAAGCCUUGGUUUUUUG [C104A G120A] | -0.701
13 | GACCAAUCUGCCCUCAGAGCUCGAGAACAUCUUCGGAUGCAGAGGAGGCAGGCUUCGGUGGCGCGAUAGCGCCAACGUCCUCAACCUCCAAUGCAUCCCACCACACGAUGAUGCCUGAAGAGCCUUGGUUCAUUG [U106C U131C U132A] | -1.1
14 | GACCAAUCUGCCCUCAGAGCUCGAGAACAUCUUCGGAUGCAGAGGAGGCAGGCUUCGGUGGCGCGAUAGCGCCAACGUCCUCAACCUCCAAUGCAUCCCACCAUAUGAUGAUGCCUGAAGAGCCUUGGUUUUCUG [C104U U133C] | 0.657
15 | GACCAAUCUGCCCUCAGAGCUCGAGAACAUCUUCGGAUGCAGAGGAGGCAGGCUUCGGUGGCGCGAUAGCGCCAACGUCCUCAACCUCCAAUGCAUCCCACCACAAGAUGAUGCCUGAAGAGCCAUGGUUUUUUG [U106A U125A] | -0.469
16 | GACCAAUCUGCCCUCAGAGCUCGAGAACAUCUUCGGAUGCAGAGGAGGCAGGCUUCGGUGGCGCGAUAGCGCCAACGUCCUCAACCUCCAAUGCAUCCCACCACUGGAUGAUGCCUGAACAGCCUUGGUUUUUUG [A105U U106G G120C] | 0.766
17 | GACCAAUCUGCCCUCAGAGCUCGAGAACAUCUUCGGAUGCAGAGGAGGCAGGCUUCGGUGGCGCGAUAGCGCCAACGUCCUCAACCUCCAAUGCAUCCCACCACAGGAUGAUGUCUGAAGAGCCUUGGUUUUUUG [U106G C114U] | -1.86
18 | GACCAAUCUGCCCUCAGAGCUCGAGAACAUCUUCGGAUGCAGAGGAGGCAGGCUUCGGUGGCGCGAUAGCGCCAACGUCCUCAACCUCCAAUGCAUCCCACCACACGAUGAUGCCUAAAGAGCCUUGGUUUUUUG [U106C G117A] | -3.23
19 | GACCAAUCUGCCCUCAGAGCUCGAGAACAUCUUCGGAUGCAGAGGAGGCAGGCUUCGGUGGCGCGAUAGCGCCAACGUCCUCAACCUCCAAUGCAUCCCACCACACGAUGAUGCCUCAAGAGCCUUGGUUUUUUG [U106C G117C] | -3.72
20 | GACCAAUCUGCCCUCAGAGCUCGAGAACAUCUUCGGAUGCAGAGGAGGCAGGCUUCGGUGGCGCGAUAGCGCCAACGUCCUCAACCUCCAAUGCAUCCCACCACGUGAUGAUGCCUAAAGAGCCUUGGUUUUUUG [A105G G117A] | -4.69
21 | GACCAAUCUGCCCUCAGAGCUCGAGAACAUCUUCGGAUGCAGAGGAGGCAGGCUUCGGUGGCGCGAUAGCGCCAACGUCCUCAACCUCCAAUGCAUCCCACCAUAUGAUGAUGCCUGAAAAGCCUUGGUUUUUUG [C104U G120A] | 0.815

Row | Variant | polymerase ribozyme fitness (log ratio)
22 | GACCAAUCUGCCCUCAGAGCUCGAGAACAUCUUCGGAUGCAGAGGAGGCAGGCUUCGGUGGCGCGAUAGCGCCAACGUCCUCAACCUCCAAUGCAUCCCACCACACGAUGAUGCCUGAAGAGACUUGGUUUUUUG [U106C C123A] | 0.522
23 | GACCAAUCUGCCCUCAGAGCUCGAGAACAUCUUCGGAUGCAGAGGAGGCAGGCUUCGGUGGCGCGAUAGCGCCAACGUCCUCAACCUCCAAUGCAUCCCACCACACGAUGAUGCCUGAAGAGUCUUGGUUUUUUG [U106C C123U] | 0.901
24 | GACCAAUCUGCCCUCAGAGCUCGAGAACAUCUUCGGAUGCAGAGGAGGCAGGCUUCGGUGGCGCGAUAGCGCCAACGUCCUCAACCUCCAAUGCAUCCCACCACACGAUGAUGCCUGAAGAGGCUUGGUUUUUUG [U106C C123G] | 0.936
25 | GACCAAUCUGCCCUCAGAGCUCGAGAACAUCUUCGGAUGCAGAGGAGGCAGGCUUCGGUGGCGCGAUAGCGCCAACGUCCUCAACCUCCAAUGCAUCCCACCACAAGAUGAUGCCUGAAGAGUCUUGGUUUUUUG [U106A C123U] | 0.563
26 | GACCAAUCUGCCCUCAGAGCUCGAGAACAUCUUCGGAUGCAGAGGAGGCAGGCUUCGGUGGCGCGAUAGCGCCAACGUCCUCAACCUCCAAUGCAUCCCACCACAGGAUGAUGCUUGAAGAGCCUUGGUUUUUUG [U106G C115U] | -4.44
27 | GACCAAUCUGCCCUCAGAGCUCGAGAACAUCUUCGGAUGCAGAGGAGGCAGGCUUCGGUGGCGCGAUAGCGCCAACGUCCUCAACCUCCAAUGCAUCCCACCAAAUGAUGAUGCCUGAAGAGCCGUGGUUUUUUG [C104A U125G] | -2.44
28 | GACCAAUCUGCCCUCAGAGCUCGAGAACAUCUUCGGAUGCAGAGGAGGCAGGCUUCGGUGGCGCGAUAGCGCCAACGUCCUCAACCUCCAAUGCAUCCCACCAUAUGAUGAUGCCUGAAGAGCUUUGGUUUUUUG [C104U C124U] | 0.788
29 | GACCAAUCUGCCCUCAGAGCUCGAGAACAUCUUCGGAUGCAGAGGAGGCAGGCUUCGGUGGCGCGAUAGCGCCAACGUCCUCAACCUCCAAUGCAUCCCACCACAAGAUGAUGCCUAAAGAGCCUUGGUUUUUUG [U106A G117A] | -1.55
30 | GACCAAUCUGCCCUCAGAGCUCGAGAACAUCUUCGGAUGCAGAGGAGGCAGGCUUCGGUGGCGCGAUAGCGCCAACGUCCUCAACCUCCAAUGCAUCCCACCACAAGAUGAUGCCUGAAGAGCCUUGGUUUAUUG [U106A U132A] | -0.65
31 | GACCAAUCUGCCCUCAGAGCUCGAGAACAUCUUCGGAUGCAGAGGAGGCAGGCUUCGGUGGCGCGAUAGCGCCAACGUCCUCAACCUCCAAUGCAUCCCACCACACGAUGAUGCCUGUAAAGCCUUGGUUUUUUG [U106C A118U G120A] | 0.234
32 | GACCAAUCUGCCCUCAGAGCUCGAGAACAUCUUCGGAUGCAGAGGAGGCAGGCUUCGGUGGCGCGAUAGCGCCAACGUCCUCAACCUCCAAUGCAUCCCACCAUAUGAUGAUGCCUGAAGAGACUUGGUUUUUUG [C104U C123A] | 0.201
33 | GACCAAUCUGCCCUCAGAGCUCGAGAACAUCUUCGGAUGCAGAGGAGGCAGGCUUCGGUGGCGCGAUAGCGCCAACGUCCUCAACCUCCAAUGCAUCCCACCAAAUGAUGAUGCCUGAAGAGCCUUGGUUUUUUU [C104A G135U] | -2.01
34 | GACCAAUCUGCCCUCAGAGCUCGAGAACAUCUUCGGAUGCAGAGGAGGCAGGCUUCGGUGGCGCGAUAGCGCCAACGUCCUCAACCUCCAAUGCAUCCCACCACACGAUGAAGCCUGAAGAGCCUUGGUUUUUUG [U106C U112A] | 0.973
35 | GACCAAUCUGCCCUCAGAGCUCGAGAACAUCUUCGGAUGCAGAGGAGGCAGGCUUCGGUGGCGCGAUAGCGCCAACGUCCUCAACCUCCAAUGCAUCCCACCACAAGAGGUUGCCUGAAGAGCCUUGGUUUUUUG [U106A U109G A111U] | -4.71
36 | GACCAAUCUGCCCUCAGAGCUCGAGAACAUCUUCGGAUGCAGAGGAGGCAGGCUUCGGUGGCGCGAUAGCGCCAACGUCCUCAACCUCCAAUGCAUCCCACCACAAGAUGAUGCCUGAACAGCCUUGGUGUUUUG [U106A G120C U130G] | 0.744
37 | GACCAAUCUGCCCUCAGAGCUCGAGAACAUCUUCGGAUGCAGAGGAGGCAGGCUUCGGUGGCGCGAUAGCGCCAACGUCCUCAACCUCCAAUGCAUCCCACCACCUGAUGAUGCCUGAAGAGCCUUGGUUUUUUG [A105C] | -2.22
38 | GACCAAUCUGCCCUCAGAGCUCGAGAACAUCUUCGGAUGCAGAGGAGGCAGGCUUCGGUGGCGCGAUAGCGCCAACGUCCUCAACCUCCAAUGCAUCCCACCACGUGAUGAUGCCUGAAGAGCCUUGGUUUUUUG [A105G] | -1.71
39 | GACCAAUCUGCCCUCAGAGCUCGAGAACAUCUUCGGAUGCAGAGGAGGCAGGCUUCGGUGGCGCGAUAGCGCCAACGUCCUCAACCUCCAAUGCAUCCCACCACUUGAUGAUGCCUGAAGAGCCUUGGUUUUUUG [A105U] | -1.69
40 | GACCAAUCUGCCCUCAGAGCUCGAGAACAUCUUCGGAUGCAGAGGAGGCAGGCUUCGGUGGCGCGAUAGCGCCAACGUCCUCAACCUCCAAUGCAUCCCACCACUUGAUGAUGCCUGAAUAGCCUUGGUUUUUUG [A105U G120U] | -2.54
41 | GACCAAUCUGCCCUCAGAGCUCGAGAACAUCUUCGGAUGCAGAGGAGGCAGGCUUCGGUGGCGCGAUAGCGCCAACGUCCUCAACCUCCAAUGCAUCCCACCACAAGAUGAUGCCUGAAAAGCCUUGGUUUUUUG [U106A G120A] | 0.348
42 | GACCAAUCUGCCCUCAGAGCUCGAGAACAUCUUCGGAUGCAGAGGAGGCAGGCUUCGGUGGCGCGAUAGCGCCAACGUCCUCAACCUCCAAUGCAUCCCACCACUUGAUGAUUCCUGAAGAGCCUUGGUUUUUUG [A105U G113U] | -5.9
